Here are results for one molecule from US20220251235A1 (published 2022).

The target of assay [1] is T1, MAGEA10 peptide on HLA-A*02:01 (human).
T1 peptide: SLLKFLAKV
The assay is described as follows: multimer staining.

The target in assay [2] is T2, MAGEA10 peptide on HLA-A*02:04 (human).
T2 peptide: SLLKFLAKV
The assay is described as follows: cytokine release.

For a further assay, the target named is T3, peptide on HLA-A*02:01 (human).
T3 peptide: KLYGLDWAEL
The assay is described as follows: cytokine release.

B1: MAGE-A10^SLL-TCR (TCR, V domains shown)
Valpha: DQQVKQNSPSLSVQEGRISILNCDYTNSMFDYFLWYKKYPAEGPTFLISISSIKDKNEDGRFTVFLNKSAKHLSLHIVPSQPGDSAVYFCAANSNSGYALNFGKGTSLLVTP
Vbeta: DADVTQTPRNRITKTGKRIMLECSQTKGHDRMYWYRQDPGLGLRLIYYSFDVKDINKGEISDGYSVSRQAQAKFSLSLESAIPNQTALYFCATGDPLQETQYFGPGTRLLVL
For B1, the binding result in assay [1] is “recognises”; in assay [2], “recognises”; with peptide on HLA-A*02:01, “no recognition”.
